This data set concerns the molecule itself. The data set is described as follows: cryo-EM structure.

B1: DARP14 subunit A (cage subunit A fused to the DARPin by a continuous alpha helix) (other)
chain: MRITTKVGDKGSTRLFGGEEVWKDSPIIEANGTLDELTSFIGEAKHYVDEEMKGILEEIQNDIYKIMGEIGSKGKIEGISEERIAWLLKLILRYMEMVNLKSFVLPGGTLESAKLDVCRTIARRALRKVLTVTREFGIGAEAAAYLLALSDLLFLLARVIEIELGKKLLEAARAGQDDEVRILMANGADVNAHDDQGSTPLHLAAWIGHPEIVEVLLKHGADVNARDTDGWTPLHLAADNGHLEIVEVLLKYGADVNAQDAYGLTPLHLAADRGHLEIVEVLLKHGADVNAQDKFGKTAFDISIDNGNEDLAEILQKLN
In the case of B1, the binding result is listed as “binds”.

B2: DARP14 subunit B (unfused cage subunit B) (other)
chain: MPHLVIEATANLRLETSPGELLEQANKALFASGQFGEADIKSRFVTLEAYRQGTAAVERAYLHACLSILDGRDIATRTLLGASLCAVLAEAVAGGGEEGVQVSVEVREMERLSYAKRVVARQR
Consider B2, for which the binding result was “binds”.

The record behind these values is doi:10.1101/212233 (bioRxiv, 2017).
